Patent publication US20150344544A1 (ACADEMIA SINICA, published 2015)

T1: FcγRIIb (UniProt P31994 43-217, limits assumed)
T1 construct: Used in ELISA; construct not described
T1 sequence (looked up): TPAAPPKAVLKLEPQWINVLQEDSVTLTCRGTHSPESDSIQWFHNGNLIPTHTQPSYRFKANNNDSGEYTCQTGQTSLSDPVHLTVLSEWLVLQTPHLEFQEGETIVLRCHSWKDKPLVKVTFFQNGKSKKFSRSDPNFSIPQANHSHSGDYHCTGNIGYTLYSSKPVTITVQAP

T2: FcγRIIa (UniProt P12318 34-217, limits assumed)
T2 construct: Used in ELISA; construct not described
T2 sequence (looked up): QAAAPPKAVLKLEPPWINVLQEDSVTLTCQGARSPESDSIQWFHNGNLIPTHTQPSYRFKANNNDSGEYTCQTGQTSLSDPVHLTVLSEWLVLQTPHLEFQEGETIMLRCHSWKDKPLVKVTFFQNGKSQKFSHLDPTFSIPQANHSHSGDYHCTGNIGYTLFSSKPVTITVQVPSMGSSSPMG

B1: Rituximab (antibody, human IgG1, kappa)
heavy: not shown
light: QIVLSQSPAILSASPGEKVTMTCRASSSVSYIHWFQQKPGSSPKPWIYATSNLASGVPVRFSGSGSGTSYSLTISRVEAEDAATYYCQQWTSNPPTFGGGTKLEIKRTVAAPSVFIFPPSDEQLKSGTASVVCLLNNFYPREAKVQWKVDNALQSGNSQESVTEQDSKDSTYSLSSTLTLSKADYEKHKVYACEVTHQGLSSPVTKSFNRGEC
notes: Commercial IgG1 with its native heterogeneous Fc glycans; also called Rituxan; Roche-Rituximab
B2: 2,6-NSCT-Rituximab (antibody, human IgG1, kappa)
heavy: not shown
light: B1 light
modifications: homogeneous afucosylated Fc N-glycan (Asn-297): Sia2(α2-6)Gal2GlcNAc2Man3GlcNAc2
notes: also called anti-CD20 GAb101
B3: 2,3-NSCT-Rituximab (antibody, human IgG1, kappa)
heavy: not shown
light: B1 light
modifications: homogeneous afucosylated Fc N-glycan (Asn-297), 2,3-sialylated: Sia2(α2-3)Gal2GlcNAc2Man3GlcNAc2
B4: G3 glycoengineered Rituximab (antibody, human IgG1, kappa)
heavy: not shown
light: B1 light
modifications: homogeneous afucosylated Fc N-glycan (Asn-297): GlcNAcMan3GlcNAc2
notes: IgG1; also called anti-CD20 GAb109
B5: G8 glycoengineered Rituximab (antibody, human IgG1, kappa)
heavy: not shown
light: B1 light
modifications: homogeneous afucosylated Fc N-glycan (Asn-297): GlcNAcMan3GlcNAc2
notes: IgG1; also called anti-CD20 GAb110
B6: G7 glycoengineered Rituximab (antibody, human IgG1, kappa)
heavy: not shown
light: B1 light
modifications: homogeneous afucosylated Fc N-glycan (Asn-297): Man3GlcNAc2
notes: IgG1; also called anti-CD20 GAb111
B7: G1 glycoengineered Rituximab (antibody, human IgG1, kappa)
heavy: not shown
light: B1 light
modifications: homogeneous afucosylated Fc N-glycan (Asn-297): Gal2GlcNAc2Man3GlcNAc2
notes: IgG1; also called anti-CD20 GAb104
B8: G6 glycoengineered Rituximab (antibody, human IgG1, kappa)
heavy: not shown
light: B1 light
modifications: homogeneous afucosylated Fc N-glycan (Asn-297): GalGlcNAc2Man3GlcNAc2
notes: IgG1; also called anti-CD20 GAb106
B9: G9 glycoengineered Rituximab (antibody, human IgG1, kappa)
heavy: not shown
light: B1 light
modifications: homogeneous afucosylated bisected Fc N-glycan (Asn-297): GlcNAc3Man3GlcNAc2
notes: IgG1; bisected glycan; also called anti-CD20 GAb107
B10: mono-GlcNAc Rituximab (antibody, human IgG1, kappa)
heavy: not shown
light: B1 light
modifications: single GlcNAc (defucosylated) at the Fc N-glycosylation site (Asn-297)
notes: IgG1; made from Rituximab with fucosidase BfFucH and an endoglycosidase; also called N-Rituximab

Each binder was assayed against T3, C1q (UniProt P02745 23-245; P02746 28-253; P02747 29-245) (assay: cell-based or functional assay).
T3 sequence (P02745 23-245 limits assumed, chain 1 of 3): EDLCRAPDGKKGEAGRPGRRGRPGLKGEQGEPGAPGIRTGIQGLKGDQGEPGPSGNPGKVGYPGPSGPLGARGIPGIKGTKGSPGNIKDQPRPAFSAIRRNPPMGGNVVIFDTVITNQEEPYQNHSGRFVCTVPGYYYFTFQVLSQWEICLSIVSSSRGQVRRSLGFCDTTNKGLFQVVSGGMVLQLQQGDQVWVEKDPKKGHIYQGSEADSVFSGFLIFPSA
T3 sequence (P02746 28-253 limits assumed, chain 2 of 3): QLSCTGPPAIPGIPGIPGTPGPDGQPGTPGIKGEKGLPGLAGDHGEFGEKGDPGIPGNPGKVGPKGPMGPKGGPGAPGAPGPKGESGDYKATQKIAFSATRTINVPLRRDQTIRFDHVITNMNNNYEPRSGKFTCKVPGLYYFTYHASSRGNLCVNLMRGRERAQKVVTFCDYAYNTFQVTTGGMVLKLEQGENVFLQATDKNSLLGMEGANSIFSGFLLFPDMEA
T3 sequence (P02747 29-245 limits assumed, chain 3 of 3): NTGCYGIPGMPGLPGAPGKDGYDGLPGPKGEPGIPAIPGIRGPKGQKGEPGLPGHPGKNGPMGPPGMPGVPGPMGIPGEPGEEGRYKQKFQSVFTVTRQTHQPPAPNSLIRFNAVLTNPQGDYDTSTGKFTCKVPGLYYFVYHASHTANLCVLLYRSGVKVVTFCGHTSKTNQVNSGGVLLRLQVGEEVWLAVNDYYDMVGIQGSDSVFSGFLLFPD

EC50 (ug/ml), CDC assay on Ramos cells, FACS [µg/mL]	Binder
0.033	B1
0.039	B2
0.086	B3

What follows are binders tested against T4, FcγRIIIa (UniProt P08637 17-208, limits assumed) (assay: cell-based or functional assay).
T4 sequence (P08637 17-208 limits assumed): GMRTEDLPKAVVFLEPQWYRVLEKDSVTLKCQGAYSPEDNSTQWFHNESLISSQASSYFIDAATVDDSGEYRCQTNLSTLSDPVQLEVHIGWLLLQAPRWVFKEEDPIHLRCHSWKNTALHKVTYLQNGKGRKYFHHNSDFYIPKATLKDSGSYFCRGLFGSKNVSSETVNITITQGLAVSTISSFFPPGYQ

EC50 (ug/ml), PBMC mediated ADCC on Raji cells [µg/mL]	EC50 (ug/ml), PBMC mediated ADCC on Ramos cells [µg/mL]	EC50 (ug/ml), PBMC mediated ADCC on SKW6.4 cells [µg/mL]	Binder
0.319	4.38	2.07	B1
0.022	0.377	0.276	B2
0.086	1.45	1.22	B3

These binders were tested against T4, FcγRIIIa (assay: SPR, antibody captured with Human Fab capture kit, single cycle kinetics).
Description: Analyzed antibodies were captured by means of the Human Fab capture kit and detected with the single cycle kinetic method.

Kd [nM]	Binder
83.6	B4
8.28	B2
120	B5
62.7	B6
9.33	B7
27.2	B8
26.2	B9

The binders below were run against T1, FcγRIIb (assay: ELISA).

EC50 [nM]	Binder
0.51	B1
0.28	B2
0.32	B10
0.53	B3

Each binder was assayed against T3, C1q (assay: ELISA).

EC50 [nM]	Binder
6.5	B1
8	B2

The binders below were run against T2, FcγRIIa (assay: ELISA).

EC50 [nM]	Binder
5.4	B1
3	B2
16.5	B3

These binders were tested against T4, FcγRIIIa (assay: ELISA).

EC50 [nM]	Binder
6.2 to 9	B1
0.24 to 0.27	B2
36.3	B10

The binders below were run against T5, FcγRI (UniProt P12314 16-288, limits assumed) (assay: ELISA).
T5 construct: Used in ELISA; construct not described
T5 sequence (P12314 16-288 limits assumed): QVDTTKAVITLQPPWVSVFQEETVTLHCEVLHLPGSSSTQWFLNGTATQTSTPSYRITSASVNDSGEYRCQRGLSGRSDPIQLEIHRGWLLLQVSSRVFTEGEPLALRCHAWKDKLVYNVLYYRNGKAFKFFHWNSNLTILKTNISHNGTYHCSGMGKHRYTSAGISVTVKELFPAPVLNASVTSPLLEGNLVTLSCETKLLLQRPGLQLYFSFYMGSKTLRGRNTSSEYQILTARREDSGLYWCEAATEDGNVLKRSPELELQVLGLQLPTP

EC50 [nM]	Binder
0.19	B1
0.23	B2
0.85	B10

Each binder was assayed against T4, FcγRIIIa (assay: SPR).

Kd [nM]	Binder
100	B1
7 to 30	B8

Each binder was assayed against T4, FcγRIIIa (assay: SPR; commercial Rituxan, not glycoengineered (reference)).

Kd [nM]	Binder
≤ 300	B1
